Test results from patent US20140094417A1.

Biological target: CD22 (UniProt P20273)
Assay: cell-based or functional assay

Sequence of UniProt P20273 (P20273 20-847 limits assumed): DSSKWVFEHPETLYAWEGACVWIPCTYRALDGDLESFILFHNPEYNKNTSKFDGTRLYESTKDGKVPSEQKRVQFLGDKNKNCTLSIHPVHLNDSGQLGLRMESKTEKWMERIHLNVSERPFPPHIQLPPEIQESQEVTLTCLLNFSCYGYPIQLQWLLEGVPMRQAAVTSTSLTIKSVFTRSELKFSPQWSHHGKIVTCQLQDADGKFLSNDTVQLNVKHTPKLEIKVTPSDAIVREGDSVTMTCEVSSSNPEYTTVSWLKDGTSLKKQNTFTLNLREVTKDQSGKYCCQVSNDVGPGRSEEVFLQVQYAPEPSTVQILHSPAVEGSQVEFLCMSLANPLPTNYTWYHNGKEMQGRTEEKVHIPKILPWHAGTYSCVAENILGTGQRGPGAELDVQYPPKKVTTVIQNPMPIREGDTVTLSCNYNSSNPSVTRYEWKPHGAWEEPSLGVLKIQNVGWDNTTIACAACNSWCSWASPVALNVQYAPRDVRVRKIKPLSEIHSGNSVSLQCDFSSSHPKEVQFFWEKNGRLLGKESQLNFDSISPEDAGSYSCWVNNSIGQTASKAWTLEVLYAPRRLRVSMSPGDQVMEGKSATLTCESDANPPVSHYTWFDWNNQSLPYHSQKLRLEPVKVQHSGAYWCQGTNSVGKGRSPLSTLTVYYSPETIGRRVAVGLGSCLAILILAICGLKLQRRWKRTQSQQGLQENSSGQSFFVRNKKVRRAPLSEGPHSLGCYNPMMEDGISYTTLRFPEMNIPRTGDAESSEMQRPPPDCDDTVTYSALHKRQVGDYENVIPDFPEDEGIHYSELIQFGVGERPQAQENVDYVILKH

| Substance | IC50 (ng/ml), cytotoxic activity on CA46 [ng/mL] | IC50 (ng/ml), cytotoxic activity on Daudi [ng/mL] | IC50 (ng/ml), cytotoxic activity on Raji [ng/mL] | activity on CA46 relative to HA22-LR [%] | activity on Daudi relative to HA22-LR [%] | activity on Raji relative to HA22-LR [%] |
| --- | --- | --- | --- | --- | --- | --- |
| HA22-LO10 | 0.38 | 0.3 | 1.5 | 29 | 60 | 27 |
| HA22-LR | 0.11 | 0.18 | 0.41 | – | – | – |
